Assay results: patent US20220064272A1

Columns and labels:
[1] = target: TauC3 (C-terminally truncated tau fragment ending at aspartate 421 of htau40) (human) (UniProt P10636); test: binding ELISA on coated TauC3, OD650; left table (HC variants); isotype control
[2] = target: TauC3 (C-terminally truncated tau fragment ending at aspartate 421 of htau40) (human) (UniProt P10636); test: binding ELISA on coated TauC3, OD650; right table (HM variants); isotype control

Sequence of TauC3 (C-terminally truncated tau fragment ending at aspartate 421 of htau40) (human) (P10636 other isoform, or with tags, fused parts or gaps): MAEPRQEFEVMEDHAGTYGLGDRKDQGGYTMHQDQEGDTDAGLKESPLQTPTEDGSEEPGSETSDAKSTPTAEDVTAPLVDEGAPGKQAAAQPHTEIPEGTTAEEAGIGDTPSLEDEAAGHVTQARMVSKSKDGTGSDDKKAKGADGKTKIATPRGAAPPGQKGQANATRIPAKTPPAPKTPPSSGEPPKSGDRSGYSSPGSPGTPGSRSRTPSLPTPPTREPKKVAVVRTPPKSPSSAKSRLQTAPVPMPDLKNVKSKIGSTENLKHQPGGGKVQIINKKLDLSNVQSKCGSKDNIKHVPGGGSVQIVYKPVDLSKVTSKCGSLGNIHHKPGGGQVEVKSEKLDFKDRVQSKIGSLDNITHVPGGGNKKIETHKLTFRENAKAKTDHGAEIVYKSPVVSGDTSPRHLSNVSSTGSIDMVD

EC50 [1]: 15.5 nM
EC50 [2]: 15.5 nM
Substance: isotype control antibody
